System: MS2 coat protein
Assay: apparent KD of MS2 coat protein; designed switch direction (-1 OFF switch, 1 ON switch): -1; higher = weaker reporter binding
In short: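 Normalised cluster fluorescence was curve-fitted, and each design's median over clusters is its apparent KD. Before this, SNAP-549-labelled MS2 coat protein was titrated from 0.7 or 1.5 nM, doubling to 3 µM, over RNA switches transcribed on Illumina chips by stalled E. coli RNA polymerase. Titrations had no input, 200 uM small-molecule ligand, or an oligonucleotide input, and steps lasted 0.8–1.5 h (lowest) to 10–20 min (highest).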

[1] = Eterna round: R95, input ligand: microRNA oligo, concentration not stated
[2] = input ligand: microRNA oligo, concentration not stated
[3] = Eterna round: R95, input ligand: FMN 200 uM
[4] = Eterna round: R95, input ligand: none

Row | Sequence | apparent KD of MS2 coat protein (input ligand: FMN 200 uM) [nM] | apparent KD of MS2 coat protein (input ligand: none) [nM] | apparent KD of MS2 coat protein [1] [nM] | further results
1 | AGAUUACAUGAGGAUCACCCAUGUCAGGAUAUCGACUGAACAGCUUCGGCUGUUCAGUCGAGAAGGGACAAUUA [Brourdxlusion 10 - Jieux - Exclusion 1] (Eterna round: R97, puzzle: Exclusion 1) | 122 | 59.7 | – | –
2 | AUUUUGUCAGGAUAUGAGUAGUAGGAUGAGAGUGCUACUACUUAGAAGGGACAUGAGGAUCACCCAUGUCUUCC [Bring Us a Shrubbery-06] (puzzle: Exclusion 4) | – | – | 13.8 | –
3 | UAAUUAAAUGUAGGAUAUCUGCACGUGUAGUGCAGAGAAGGACAUGAGGAUCACCCAUGUAGAUCAAAUUAAAUUAAUUUAAUU [ENG1/5-D3] (Eterna round: R96, puzzle: Exclusion NG 1) | 54 | 23.7 | – | apparent KD of MS2 coat protein [2]: 21.5 nM
4 | UGACGAGUAGGAUAUUGGACUUGCGACAUGAGGAUCACCCAUGUGACGUCAACGUGGCACCAAGAAGGGCUACGUC [Gelareusdi] (puzzle: Exclusion 5) | – | – | 47.7 | –
5 | GCAGGAUAAGUCAGGAUAUACCUAUGGAUACAUAGGUAGAAGGGACAUGAGGAUCACCCAUGUGACUCGCCUGC [Fiskers BMX 4 - 73] (puzzle: Brourd's mod of Exclusion 4) | – | – | 27.6 | –
6 | UACAUGAGGAUCACCCAUGUUUUGUCGUGUAUGGUAUUUAUCUAGGAUAUCAAUUUAUUUAUUUAUGAGAAGGAGAAUAUUAAU [JMF's solution 5] (Eterna round: R96, puzzle: Exclusion NG 3) | 36.3 | 41.2 | – | apparent KD of MS2 coat protein [2]: 28.1 nM
7 | CUUAUGUCAGGAUAUGCCUGGCCGUGAGGCCAAAUUGAAUAGCAGAAGGGACAUGAGGAUCACCCAUGUCCGGG [jl-ex4-4.64 ViennaUCT mod] (Eterna round: R97, puzzle: Exclusion 4) | 115 | 130 | – | –
8 | UUUUUAUAUGAAGGAUAUACUUAACAUGAGGAUCACCCAUGUGGUGUUGUGAGUGAGUGAGUUUAGUAGAAGGUCAAUGAUUUC [JMF's solution 64] (Eterna round: R96, puzzle: Exclusion NG 2) | 764 | 439 | – | apparent KD of MS2 coat protein [2]: 382 nM
9 | GGAUCGAGUGUGAGGAUAUGCUGGUCCUUGGAUCAGCAGAAGGCACAUGAGGAUCACCCAUGUGAAGACGGUCC [JL bmx4 3.16] (Eterna round: R96, puzzle: Brourd's mod of Exclusion 4) | – | – | – | apparent KD of MS2 coat protein [2]: 25.9 nM
10 | UAUCGCAAGCGAAGAUCCCACAUGAGGAUCACCCAUGUGCUCGUCUUAUAAGGUACUGUGACGAUAGUCACGGUACC [Mat - Sensor, turn-off var - Eli Mod - D77] (Eterna round: R97, puzzle: Sensor, turn-off variant 1) | 33.6 | 24.9 | – | –
11 | UGCGUGUGAGGAUAUGCGCGUGGCGAUCUUAAGUUACGCAAGCAGAAGGCACAUGAGGAUCACCCAUGUGGCCA [Eternabot (L1) Solution 20] (Eterna round: R97, puzzle: Exclusion 4) | 98.5 | 20.3 | – | –
12 | CACGAGCUAGGAUAUACAUGAGGAUCACCCAUGUAAGUCAUGCGGUCACAUCUGACAGGUAGAAGGAGCGCGUC [Teaertete] (puzzle: Exclusion 3) | – | – | 37.5 | –
13 | UAAGAAUACCGAGGAUAUGGUAGUACAUAUUUACCAGAAGGCGGACUCAACAUGAGGAUCACCCAUGUAUAAAGGGUAUUAGGU [JR_ExcNG1_Sub043] (Eterna round: R96, puzzle: Exclusion NG 1) | 94.1 | 64.3 | – | apparent KD of MS2 coat protein [2]: 58.3 nM
14 | UUUUUUUUGCGAGGAUAUGCUUUUAGUAAGUUAGCAGAAGGCGCGUUACAUAGAACCUCUUCUUACAUGAGGAUCACCCAUGUU [JR_ExcNG1_Sub035] (Eterna round: R96, puzzle: Exclusion NG 1) | 95.6 | 61.9 | – | apparent KD of MS2 coat protein [2]: 56 nM
15 | CCGGAAAAGGAGGAUAUAGGAGUCGAUAGACACCUAGAAGGUCUGACAUGAGGAUCACCCAUGUGUCCUACCGG [Fiskers Ex 6 - 89] (puzzle: Exclusion 6) | – | – | 20.8 | –
16 | GAUAAGGUAGGAUAUACGAAUAAAUAGGGUAGUAAUAAUACACAUGAGGAUCACCCAUGUAGAAGGACCAAUAG [Mat - Exclusion 2 - Mod of my Tesla design - D41] (puzzle: Exclusion 2) | – | – | 19.4 | apparent KD of MS2 coat protein [3]: 37.4 nM; apparent KD of MS2 coat protein [4]: 21.4 nM
17 | ACUCAACAUGAGGAUCACCCAUGUCAGGAUAUCUCUAUUUUGCGCGGGAGCAGAAUAGAGAGAAGGGACAACCU [Eternabot (Original) Solution 3] (Eterna round: R97, puzzle: Exclusion 1) | 91.2 | 42.8 | – | –

Row | Sequence | apparent KD of MS2 coat protein (input ligand: FMN 200 uM) [nM] | apparent KD of MS2 coat protein (input ligand: none) [nM] | apparent KD of MS2 coat protein [1] [nM] | further results
18 | CUGGUCCGAGGAUAUAUUAUGUGAUACAUGAGGAUCACCCAUGUUAUAUAAUGGAUGUAAAUAGAAGGCGGACUAG [JL-ex5-3.16] (puzzle: Exclusion 5) | – | – | 43.2 | apparent KD of MS2 coat protein [3]: 60.3 nM; apparent KD of MS2 coat protein [4]: 44 nM
19 | UGGAGGUGAGGAUAUACAUGAGGAUCACCCAUGUGGUGAAGUAGAGAGUAGUGGAGUGGUAGAAGGCACGAGUA [Version #1] (Eterna round: R97, puzzle: Exclusion 3) | 702 | 352 | – | –
20 | GCGCCUUGAGUGAGGAUAUGUUCAUAGUCGCUUGGAUAGAAGGCACAUGAGGAUCACCCAUGUAUCGGAGUUAA [Eternabot (L2) Solution 39] (Eterna round: R97, puzzle: Brourd's mod of Exclusion 4) | 48.2 | 33.9 | – | –
21 | ACAUGAGGAUCACCCAUGUGACCACGAUGGCUGAUGUAGAGACAGGAUAUGUGUGAAUAUCUAUCACAGAAGGGUCUUGACUGG [Deportation 54 - Jieux - Exclusion NG 3] (Eterna round: R96, puzzle: Exclusion NG 3) | 35.3 | 31.3 | – | apparent KD of MS2 coat protein [2]: 25.7 nM
22 | AGUACUAACACGAAAGUGUUAGUACAAUAAGCUUGUGUUACAUGAGGAUCACCCAUGUCCUCAUAAGCUCGUCUUAU [JL-sv3-2.14 mat747 mod] (puzzle: Sensor v3, turn-off variant 2) | – | – | 48.5 | apparent KD of MS2 coat protein [3]: 100 nM; apparent KD of MS2 coat protein [4]: 98.1 nM
23 | UUUAAUUUUUUUUUUUUACAAGCUUUUUGCUCGUCUUAUACAUGAGGAUCACCCAUGUAGGUGAAGGGUAAAUUAUC [JMF 81] (puzzle: Sensor v3, turn-off variant 2) | – | – | 77.7 | apparent KD of MS2 coat protein [3]: 17.9 nM; apparent KD of MS2 coat protein [4]: 15.8 nM
24 | CGUCAGUGAGGAUAUGGUAACGUUUACAUGAGGAUCACCCAUGUUUCAUGGGACUAGAGACUAGAAGGCACUGACG [JR_Ex5_Sub030] (Eterna round: R97, puzzle: Exclusion 5) | 439 | 416 | – | –
25 | CCUUCUCGUGUCAGGAUAUCCACUCAUCGAAAUUAGGAGAAGGGACAUGAGGAUCACCCAUGUAUACAUGCCAG [Cequesar] (puzzle: Brourd's mod of Exclusion 4) | – | – | 61.7 | –
26 | GCGGCUGACGUCAGGAUAUCCGUACCGUAUGGGUGGGAGAAGGGACAUGAGGAUCACCCAUGUUAAUCUAUUAA [Eternabot (L1) Solution 45] (Eterna round: R97, puzzle: Brourd's mod of Exclusion 4) | 62.7 | 58.4 | – | –
27 | ACAUGUAAUGUAGGAUAUUUUACACAUGAGGAUCACCCAUGUGACCAGAGGCAUUGCUAUGAGUAAAAGAAGGGUAUGUACAUG [Ex NG2 #58] (Eterna round: R96, puzzle: Exclusion NG 2) | 47 | 42.3 | – | apparent KD of MS2 coat protein [2]: 27.8 nM
28 | UAUCGGGACUGAGGAUAUUCGUUCGAACACGAAGAAGAAGGUAGUGUCAGGGACAUGAGGAUCACCCAUGUGAUCUCAGUCCUA [JL ViennaUCT Erinle mod 2] (Eterna round: R96, puzzle: Exclusion NG 1) | 130 | 100 | – | apparent KD of MS2 coat protein [2]: 67.9 nM
29 | CCGCAAAUGCAGGAUAUCGUAUCGGAUACGAUACGAGAAGGGCAAACAUGAGGAUCACCCAUGUGUCCUAGCGG [Fiskers Ex 6 - 39] (puzzle: Exclusion 6) | – | – | 13.7 | –
30 | UAUUGCAAGCGAAGAUCCCACAUGAGGAUCACCCAUGUGCUCGUCUUAUAAGGUACUGUGACGAUAGUCACGGUACC [Mat - Sensor, turn-off var - Eli Mod - D76] (Eterna round: R97, puzzle: Sensor, turn-off variant 1) | 34 | 30.6 | – | –
31 | AAUACAAGCGAGAUCCUAAACAUGAGGAUCACCCAUGUGCUCGUCUUAUAAAGUACUAUCACGAAAGUGAUAGUACA [Sensor 3, v1 - 67] (puzzle: Sensor v3, turn-off variant 1) | – | – | 157 | apparent KD of MS2 coat protein [3]: 16.7 nM; apparent KD of MS2 coat protein [4]: 16.5 nM
32 | AAAAGGCUAGGAUAUACAUGAGGAUCACCCAUGUGUACUGGACAUGCGGUAUGCGUAUGUAGAAGGAGUAUAAA [Inaisor] (puzzle: Exclusion 3) | – | – | 14.2 | –
33 | CGUGCGUAUGUGAGGAUAUGCUGGUCCUUGGAUCGGCAGAAGGCACAUGAGGAUCACCCAUGUGGUGUCGUUCC [salish99_Bmod_ex4_094] (puzzle: Brourd's mod of Exclusion 4) | – | – | 39 | –
34 | GUUAAUUGUGACAUGGGUGACAUGAGGAUCACCCAUGUCACAAGCUUUUUGUUCGUCUUAUAAUUAACCCAUGUCAC [Stov1/13-B2] (Eterna round: R97, puzzle: Sensor, turn-off variant 1) | 79.8 | 94.8 | – | –

Reference: the supplement of paper PMC9170038
